In general, EC50 refers to the concentration at which the effect is half-maximal.

Consider 48 molecules from patent US20040253247A1 (Genentech, published 2004).

Experiment [1] addresses human albumin (human, UniProt P02768 25-609). Kind of experiment: phage ELISA. How it is done:
(§1) Phage ELISA—Phage clones (˜10¹¹ phage) were added to plates coated with rat, rabbit or human albumin. The microtiter plate was washed with wash buffer and bound phage were detected with HRP/Anti-M13 Conjugate. The amount of HRP bound was measured using ABTS/H₂O₂ substrate and monitoring the change at 405 nm.

The target of experiment [2] is rabbit albumin (rabbit, UniProt P49065 25-608). As to the kind of experiment: phage ELISA. The procedure:
as §1
(In general: In an ELISA, binding on a coated surface is turned into a signal by an enzyme label.)

In experiment [3] the target is T1, IgG-Fc (UniProt P01857-1 108-330 = IgG part, limits assumed).
T1 construct: domain: IgG-Fc; also called biotinylated-IgG-Fc; biotin-IgG-Fc
Kind of experiment: phage ELISA, M13/gIII display.

Experiment [4] addresses rat albumin (rat, UniProt P02770 25-608). As to the kind of experiment: phage ELISA. How it is done:
as §1

Sequence of rabbit albumin (P49065 25-608 limits assumed): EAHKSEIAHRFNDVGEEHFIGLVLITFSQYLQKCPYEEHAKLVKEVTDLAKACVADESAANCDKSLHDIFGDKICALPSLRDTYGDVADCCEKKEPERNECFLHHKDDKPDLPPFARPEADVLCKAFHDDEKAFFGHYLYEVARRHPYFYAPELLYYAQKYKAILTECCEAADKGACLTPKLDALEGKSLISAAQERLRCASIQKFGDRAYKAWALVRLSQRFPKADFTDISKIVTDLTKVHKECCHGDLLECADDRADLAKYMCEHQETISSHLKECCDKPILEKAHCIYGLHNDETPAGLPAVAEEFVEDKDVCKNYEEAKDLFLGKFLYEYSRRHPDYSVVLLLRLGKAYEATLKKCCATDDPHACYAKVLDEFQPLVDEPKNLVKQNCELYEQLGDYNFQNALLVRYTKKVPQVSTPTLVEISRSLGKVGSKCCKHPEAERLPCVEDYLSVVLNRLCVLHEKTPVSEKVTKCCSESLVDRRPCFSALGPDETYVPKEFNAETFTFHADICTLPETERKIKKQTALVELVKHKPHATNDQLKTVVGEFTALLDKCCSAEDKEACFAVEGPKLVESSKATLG
Sequence of rat albumin (P02770 25-608 limits assumed): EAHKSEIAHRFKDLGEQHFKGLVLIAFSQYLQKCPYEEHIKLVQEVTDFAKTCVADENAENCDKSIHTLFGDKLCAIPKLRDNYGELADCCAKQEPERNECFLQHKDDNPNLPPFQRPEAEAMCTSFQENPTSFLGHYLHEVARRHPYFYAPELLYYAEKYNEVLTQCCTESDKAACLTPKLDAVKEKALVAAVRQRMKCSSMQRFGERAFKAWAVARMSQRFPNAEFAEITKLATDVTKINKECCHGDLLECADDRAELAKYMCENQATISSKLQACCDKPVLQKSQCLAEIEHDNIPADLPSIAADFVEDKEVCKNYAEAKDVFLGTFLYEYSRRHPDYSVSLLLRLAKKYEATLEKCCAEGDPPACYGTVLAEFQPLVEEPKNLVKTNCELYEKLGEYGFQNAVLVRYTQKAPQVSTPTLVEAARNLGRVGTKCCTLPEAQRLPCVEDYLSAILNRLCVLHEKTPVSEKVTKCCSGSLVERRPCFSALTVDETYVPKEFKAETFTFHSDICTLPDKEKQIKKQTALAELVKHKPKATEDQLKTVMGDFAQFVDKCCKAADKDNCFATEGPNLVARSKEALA

For the molecule EEDVCLPVWGCLWEG (phage clone, Library RBC) [RBC-R20], the binding result in experiment [1] and in experiment [2] was “no binding” in each case.

Regarding ERQMEDFCLPQWGCLWGDGV (phage clone, Library RB) [RB-R1], the binding result in experiment [1] and in experiment [2] was “no binding” throughout.

For QRQIMDFCLPHWGCLWGDGF (phage clone, Library RB) [RB-R10], the binding result in experiment [1] and in experiment [2] was “no binding” in each case.

B1: phage clone KEADCAWHLGELVWCVAGVE (peptide)
peptide: KEADCAWHLGELVWCVAGVE
notes: M13/gIII phage display; Focused Libraries
B1 had a concentration for a half-maximal effect (EC50) in experiment [3] of 138 nM.

On to DSCGDLLRLGLECWA (phage clone, Library RD) [RD-R6], for which the binding result in experiment [1] and in experiment [2] was “no binding” each time.

For the molecule EWDVCFPAWGCLWDQ (phage clone, Library RBC) [RBC-R18], the binding result in experiment [1] and in experiment [2] was “no binding” each time.

For the molecule FEDLCVVRWGCLWGD (phage clone, Library RBC) [RBC-R6], the binding result in experiment [1] and in experiment [2] was “no binding” each time.

Take DICLPVWGCLW (phage clone, Library RC) [RC-R1]: the binding result in experiment [1] and in experiment [2] was “no binding” throughout.

On to VWDLCLPQWGCLWDE (phage clone, Library RBC) [RBC-R11], for which the binding result in experiment [1] and in experiment [2] was “no binding” each time.

In the case of ERQMVDFCLPKWGCLWGDGF (phage clone, Library RB) [RB-R11], the binding result in experiment [1] is on record as “no binding”.

For the molecule QRQVVDFCLPQWGCLWGDGS (phage clone, Library RB) [RB-R14], the binding result in experiment [1] and in experiment [2] was “no binding” each time.

Consider EFDLCLPTWGCLWED (phage clone, Library RBC) [RBC-R13], for which the binding result in experiment [1] and in experiment [2] was “no binding” each time.

With ETCYFPGICWL (phage clone, Library HC) [HC-H12], the binding result in experiment [4] and in experiment [2] was “no binding” each time.

Regarding QSQLEDFCLPKWGCLWGDGF (phage clone, Library RB) [RB-R15], the binding result in experiment [1] was “no binding”.

Take GRQVVDFCLPKWGCLWEEGL (phage clone, Library RB) [RB-R2]: the binding result in experiment [1] and in experiment [2] was “no binding” in each case.

Regarding NWDLCFPDWGCLWDD (phage clone, Library RBC) [RBC-R8], the binding result in experiment [1] and in experiment [2] was “no binding” throughout.

As for DICLPVWGCLW (phage clone, Library RC) [RC-R2], the binding result in experiment [1] and in experiment [2] was “no binding” throughout.

Regarding KSRMGDFCLPEWGCLWGDEL (phage clone, Library RB) [RB-R9], the binding result in experiment [1] and in experiment [2] was “no binding” throughout.

As to QGGMGDFCLPQWGCLWGEDL (phage clone, Library RB) [RB-R17], in experiment [1], the binding result is listed as “no binding”.

Take DTCSDLVGLGLECWA (phage clone, Library RD) [RD-R1]: the binding result in experiment [1] and in experiment [2] was “no binding” throughout.

B2: phage clone WEADCAWHLGELVWCTKVEE (peptide)
peptide: WEADCAWHLGELVWCTKVEE
notes: M13/gIII phage display; Secondary Optimization
In turn, B2 registered a concentration for a half-maximal effect (EC50) in experiment [3] of 7 nM.

B3: phage clone GEADCAWHLGELVWCTKVEE (peptide)
peptide: GEADCAWHLGELVWCTKVEE
notes: as for B2
Turning to B3, the response in experiment [3] was half-maximal at 38 nM (EC50).

DICLPVWGCLW (phage clone, Library RC) [RC-R18]: the binding result in experiment [1] and in experiment [2] was “no binding” in each case.

Consider QRPIMDFCLPKWGCLWEDGF (phage clone, Library RB) [RB-R7], for which the binding result in experiment [1] is recorded as “no binding”.

For the molecule SEDFCLPVWGCLWED (phage clone, Library RBC) [RBC-R9], the binding result in experiment [1] and in experiment [2] was “no binding” throughout.

For DICLPVWGCLW (phage clone, Library RC) [RC-R3], the binding result in experiment [1] and in experiment [2] was “no binding” in each case.

WEDLCLPDWGCLWED (phage clone, Library RBC) [RBC-R5]: the binding result in experiment [1] and in experiment [2] was “no binding” throughout.

RWQTEDVCLPKWGCLFGDGV (phage clone, Library RB) [RB-B1]: the binding result in experiment [1] is listed as “no binding”.

For the molecule QGYMVDFCLPRWGCLWGDAN (phage clone, Library RB) [RB-R12], in experiment [1], the binding result is recorded as “no binding”.

For EWDVCLPHWGCLWDG (phage clone, Library RBC) [RBC-R16], in experiment [1], the binding result is “no binding”.

For FEDFCLPNWGCLWGS (phage clone, Library RBC) [RBC-R4], the binding result in experiment [1] and in experiment [2] was “no binding” throughout.

With DICLPVWGCLW (phage clone, Library RC) [RC-R12], the binding result in experiment [1] and in experiment [2] was “no binding” in each case.

Consider LAEMCYFPGICWMSA (phage clone, Library HBC) [HBC-H7], for which the binding result in experiment [4] and in experiment [2] was “no binding” throughout.

On to MWDVCFPDWGCLWDV (phage clone, Library RBC) [RBC-R15], for which the binding result in experiment [1] and in experiment [2] was “no binding” each time.

As for MDDICLHHWGCLWDE (phage clone, Library RBC) [RBC-R1], the binding result in experiment [1] and in experiment [2] was “no binding” throughout.

In the case of QGDFWDICLPRWGCLSGEGY (phage clone, Library RB) [RB-B10], in experiment [1], the binding result is listed as “no binding”.

Take MFDLCLPKWGCLWGN (phage clone, Library RBC) [RBC-R12]: the binding result in experiment [1] and in experiment [2] was “no binding” throughout.

In the case of DTCDDLVQLGLECWA (phage clone, Library RD) [RD-R11], the binding result in experiment [1] and in experiment [2] was “no binding” in each case.

In the case of DTCEDLVRLGLECWA (phage clone, Library RD) [RD-R5], the binding result in experiment [1] and in experiment [2] was “no binding” each time.

Turning to NTCADLVRLGLECWA (phage clone, Library RD) [RD-R7], the binding result in experiment [1] and in experiment [2] was “no binding” each time.

On to WDDICFRDWGCLWGS (phage clone, Library RBC) [RBC-R7], for which the binding result in experiment [1] and in experiment [2] was “no binding” throughout.

As to QMQMSDFCLPQWGCLWGDGY (phage clone, Library RB) [RB-R3], the binding result in experiment [1] and in experiment [2] was “no binding” in each case.

Consider DICLPVWGCLW (phage clone, Library RC) [RC-R10], for which the binding result in experiment [1] and in experiment [2] was “no binding” in each case.

Consider KMGRVDFCLPKWGCLWGDEL (phage clone, Library RB) [RB-R13], for which the binding result in experiment [1] was “no binding”.

With QRLMWEICLPLWGCLWGDGL (phage clone, Library RB) [RB-R5], the binding result in experiment [1] and in experiment [2] was “no binding” each time.

For the molecule DFDLCLPDWGCLWDD (phage clone, Library RBC) [RBC-R10], the binding result in experiment [1] and in experiment [2] was “no binding” each time.

On to QRHMMDFCLPKWGCLWGDGY (phage clone, Library RB) [RB-R4], for which, in experiment [1], the binding result is reported as “no binding”.

With MDDLCLPNWGCLWGD (phage clone, Library RBC) [RBC-R2], the binding result in experiment [1] and in experiment [2] was “no binding” throughout.
